Starred links: 1 amine or outer side, 2 acyl side, 3 side chain; linkers in the order of their positions; H or OH if unused. Non-standard residues stand in square brackets, D forms with d. Groups on a side chain read outwards from the residue. Primed or numbered codes have the meaning given here. No end group written: not given here. *: point of attachment. γGlu = O=C(O)[C@H](CCC(=O)[*:2])N[*:1]; αMeF = C[C@](N)(Cc1ccccc1)C(=O)O; αMeK = C[C@](N)(CCCCN)C(=O)O; Lauroyl = CCCCCCCCCCCC(=O)*; αMeS = C[C@](N)(CO)C(=O)O; PEG2′ = not defined here; Aib = CC(C)(N)C(=O)O
Assays:
Assay in all cases: cell-based or functional assay
[1] = biological target: GLP-1 receptor (GLP-1R), primary cAMP assay cell line (human, UniProt P43220 24-463)
[2] = biological target: glucagon receptor (GCGR), primary cAMP assay cell line (human, UniProt P47871 26-477)
Chain of glucagon receptor (GCGR), primary cAMP assay cell line (P47871 26-477): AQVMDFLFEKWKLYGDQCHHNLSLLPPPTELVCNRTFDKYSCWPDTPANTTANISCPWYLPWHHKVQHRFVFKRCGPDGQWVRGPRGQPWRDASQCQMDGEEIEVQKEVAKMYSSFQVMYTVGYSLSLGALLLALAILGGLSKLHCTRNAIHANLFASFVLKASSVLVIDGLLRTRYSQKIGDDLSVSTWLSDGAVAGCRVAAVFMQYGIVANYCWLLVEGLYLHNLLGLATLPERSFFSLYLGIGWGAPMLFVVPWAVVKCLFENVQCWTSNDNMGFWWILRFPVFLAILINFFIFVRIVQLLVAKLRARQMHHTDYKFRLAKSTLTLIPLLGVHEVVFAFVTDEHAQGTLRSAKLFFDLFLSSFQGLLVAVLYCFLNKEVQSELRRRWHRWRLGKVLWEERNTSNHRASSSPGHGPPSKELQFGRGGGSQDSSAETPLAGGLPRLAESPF

[3] = biological target: T1, glucose-dependent insulinotropic peptide (gastric inhibitory polypeptide) receptor (GIPR), primary cAMP assay … (human, UniProt P48546 22-466)
T1 sequence (looked up): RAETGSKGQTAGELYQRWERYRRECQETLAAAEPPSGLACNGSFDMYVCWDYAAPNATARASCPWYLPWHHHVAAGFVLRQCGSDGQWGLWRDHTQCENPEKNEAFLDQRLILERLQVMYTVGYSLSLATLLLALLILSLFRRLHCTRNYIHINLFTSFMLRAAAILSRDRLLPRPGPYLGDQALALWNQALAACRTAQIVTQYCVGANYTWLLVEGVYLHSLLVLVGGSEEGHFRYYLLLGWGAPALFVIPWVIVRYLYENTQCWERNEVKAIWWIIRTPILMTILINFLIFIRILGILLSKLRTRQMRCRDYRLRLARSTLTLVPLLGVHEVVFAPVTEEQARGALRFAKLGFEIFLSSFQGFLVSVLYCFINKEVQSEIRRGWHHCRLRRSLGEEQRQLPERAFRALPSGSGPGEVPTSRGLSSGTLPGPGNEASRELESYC

GLP-1 receptor = GLP-1 receptor (human, UniProt P43220 24-463)
glucagon receptor = glucagon receptor (human, UniProt P47871 26-477)
Chain of glucagon receptor (P47871 26-477): as the sequence (P47871 26-477) above

[4] = biological target: T2, glucose-dependent insulinotropic peptide (gastric inhibitory polypeptide) receptor (human, UniProt P48546 22-466)
T2 sequence (looked up): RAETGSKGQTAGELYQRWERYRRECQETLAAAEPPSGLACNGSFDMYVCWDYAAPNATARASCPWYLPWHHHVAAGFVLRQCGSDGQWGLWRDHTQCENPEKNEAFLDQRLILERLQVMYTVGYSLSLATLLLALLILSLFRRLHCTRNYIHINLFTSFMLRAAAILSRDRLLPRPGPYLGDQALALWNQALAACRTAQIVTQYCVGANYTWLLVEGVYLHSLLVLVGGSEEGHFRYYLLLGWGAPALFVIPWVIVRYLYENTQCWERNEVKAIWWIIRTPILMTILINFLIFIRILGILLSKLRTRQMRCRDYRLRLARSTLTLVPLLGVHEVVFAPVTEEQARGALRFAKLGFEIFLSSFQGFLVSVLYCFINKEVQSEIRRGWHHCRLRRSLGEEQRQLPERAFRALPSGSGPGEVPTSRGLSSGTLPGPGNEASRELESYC

Binder | cAMP Primary assay EC50, Mean pM GLP-1R [1] [pM] | cAMP Primary assay EC50, n1 [1] [nM] | cAMP Primary assay EC50, n2 [1] [nM] | cAMP Primary assay EC50, n1 [2] [nM] | cAMP Primary assay EC50, n2 [2] [nM] | cAMP Primary assay EC50, n1 [3] [nM] | cAMP Primary assay EC50, n2 [3] [nM] | Primary assay EC50 (cAMP), Mean pM GLP-1R (GLP-1 receptor) [pM] | Primary assay EC50 (cAMP), n1 (GLP-1 receptor) [nM] | Primary assay EC50 (cAMP), n2 (GLP-1 receptor) [nM] | Primary assay EC50 (cAMP), n1 (glucagon receptor) [nM] | Primary assay EC50 (cAMP), n2 (glucagon receptor) [nM] | Primary assay EC50 (cAMP), n1 [4] [nM] | Primary assay EC50 (cAMP), n2 [4] [nM]
H[Aib]EGS[αMeF]TSDV[αMeS]SK([PEG2′-PEG2′-γGlu-Lauroyl])LEK([PEG2′-PEG2′-γGlu-Lauroyl])EAA[αMeK]EFIK([PEG2′-PEG2′-γGlu-Lauroyl])FVVEGG-NH2 [SEQ ID NO: 447] | 150 | 0.123 | 0.176 | 19.7 | 19.7 | 19.7 | 19.7 | – | – | – | – | – | – | –
H[Aib]EGS[αMeF]TSDK([PEG2′-PEG2′-γGlu-Lauroyl])SSYLEGK([PEG2′-PEG2′-γGlu-Lauroyl])AA[αMeK]EFIK([PEG2′-PEG2′-γGlu-Lauroyl])FVVEGG-NH2 [SEQ ID NO: 440] | 130 | 0.0967 | 0.164 | 19.7 | 19.7 | 19.7 | 19.7 | – | – | – | – | – | – | –
H[Aib]EGS[αMeF]TSDV[αMeS]SK([PEG2′-PEG2′-γGlu-Lauroyl])LEGK([PEG2′-PEG2′-γGlu-Lauroyl])AA[αMeK]EFIK([PEG2′-PEG2′-γGlu-Lauroyl])FVVEGG-NH2 [SEQ ID NO: 448] | 92.4 | 0.0788 | 0.106 | 19.9 | 19.9 | 19.9 | 19.9 | – | – | – | – | – | – | –
H[Aib]EGS[αMeF]TSDK([PEG2′-PEG2′-γGlu-Lauroyl])SSYLEGEAA[αMeK]K([PEG2′-PEG2′-γGlu-Lauroyl])FIK([PEG2′-PEG2′-γGlu-Lauroyl])FVVEGG-NH2 [SEQ ID NO: 442] | 82 | 0.0609 | 0.103 | 19.7 | 19.7 | 19.7 | 19.7 | – | – | – | – | – | – | –
H[Aib]EGS[αMeF]TSDK([PEG2′-PEG2′-γGlu-Lauroyl])SSYLEK([PEG2′-PEG2′-γGlu-Lauroyl])EAA[αMeK]EFIK([PEG2′-PEG2′-γGlu-Lauroyl])FVVEGG-NH2 [SEQ ID NO: 439] | 97 | 0.0599 | 0.134 | 19.5 | 19.5 | 19.5 | 19.5 | – | – | – | – | – | – | –
H[Aib]EGS[αMeF]TSDV[αMeS]SK([PEG2′-PEG2′-γGlu-Lauroyl])LEGEK([PEG2′-PEG2′-γGlu-Lauroyl])A[αMeK]EFIK([PEG2′-PEG2′-γGlu-Lauroyl])FVVEGG-NH2 [SEQ ID NO: 449] | 246 | 0.216 | 0.276 | 19.7 | 19.7 | 19.7 | 19.7 | – | – | – | – | – | – | –
H[Aib]EGS[αMeF]T[αMeS]DVSS[αMeF]LEGEAA[αMeK]E[αMeF]IA[αMeF]VV[αMeK]GG-NH2 (N-terminus assumed; SMILES CC[C@H](C)[C@H](NC(=O)[C@](C)(Cc1ccccc1)NC(=O)[C@H](CCC(=O)O)NC(=O)[C@](C)(CCCCN)NC(=O)[C@H](C)NC(=O)[C@H](C)NC(=O)[C@H](CCC(=O)O)NC(=O)CNC(=O)[C@H](CCC(=O)O)NC(=O)[C@H](CC(C)C)NC(=O)[C@](C)(Cc1ccccc1)NC(=O)[C@H](CO)NC(=O)[C@H](CO)NC(=O)[C@@H](NC(=O)[C@H](CC(=O)O)NC(=O)[C@](C)(CO)NC(=O)[C@@H](NC(=O)[C@](C)(Cc1ccccc1)NC(=O)[C@H](CO)NC(=O)CNC(=O)[C@H](CCC(=O)O)NC(=O)C(C)(C)NC(=O)[C@@H](N)Cc1c[nH]cn1)[C@@H](C)O)C(C)C)C(=O)N[C@@H](C)C(=O)N[C@@](C)(Cc1ccccc1)C(=O)N[C@H](C(=O)N[C@H](C(=O)N[C@@](C)(CCCCN)C(=O)NCC(=O)NCC(N)=O)C(C)C)C(C)C) [SEQ ID NO 16] | – | – | – | – | – | – | – | 10100 | 11 | 9.4 | 100 | 100 | 100 | 100
H[Aib]EGS[αMeF]TSDVSK([PEG2′-PEG2′-γGlu-Lauroyl])YLEK([PEG2′-PEG2′-γGlu-Lauroyl])EAA[αMeK]EFIK([PEG2′-PEG2′-γGlu-Lauroyl])FVVEGG-NH2 [SEQ ID NO: 443] | 223 | 0.192 | 0.254 | 19.4 | 19.4 | 19.4 | 19.4 | – | – | – | – | – | – | –
H[Aib]EGS[αMeF]TSDK([PEG2′-PEG2′-γGlu-Lauroyl])SSYLEGEK([PEG2′-PEG2′-γGlu-Lauroyl])A[αMeK]EFIK([PEG2′-PEG2′-γGlu-Lauroyl])FVVEGG-NH2 [SEQ ID NO: 441] | 176 | 0.11 | 0.241 | 19.5 | 19.5 | 19.5 | 19.5 | – | – | – | – | – | – | –
H[Aib]EGS[αMeF]TSDV[αMeS]SYK([PEG2′-PEG2′-γGlu-Lauroyl])EK([PEG2′-PEG2′-γGlu-Lauroyl])EAA[αMeK]EFIK([PEG2′-PEG2′-γGlu-Lauroyl])FVVEGG-NH2 [SEQ ID NO: 451] | 93.4 | 0.0288 | 0.158 | 19.7 | 19.5 | 19.7 | 19.5 | – | – | – | – | – | – | –
H[Aib]EGS[αMeF]TSDVSK([PEG2′-PEG2′-γGlu-Lauroyl])YLEGEAA[αMeK]K([PEG2′-PEG2′-γGlu-Lauroyl])FIK([PEG2′-PEG2′-γGlu-Lauroyl])FVVEGG-NH2 [SEQ ID NO: 446] | 107 | 0.0873 | 0.127 | 19.7 | 19.7 | 19.7 | 19.7 | – | – | – | – | – | – | –
H[Aib]EGS[αMeF]TSDVSK([PEG2′-PEG2′-γGlu-Lauroyl])YLEGEK([PEG2′-PEG2′-γGlu-Lauroyl])A[αMeK]EFIK([PEG2′-PEG2′-γGlu-Lauroyl])FVVEGG-NH2 [SEQ ID NO: 445] | 260 | 0.242 | 0.277 | 19.5 | 19.5 | 19.5 | 19.5 | – | – | – | – | – | – | –
H[Aib]EGS[αMeF]TSDVSK([PEG2′-PEG2′-γGlu-Lauroyl])YLEGK([PEG2′-PEG2′-γGlu-Lauroyl])AA[αMeK]EFIK([PEG2′-PEG2′-γGlu-Lauroyl])FVVEGG-NH2 [SEQ ID NO: 444] | 144 | 0.125 | 0.162 | 19.7 | 19.7 | 19.7 | 19.7 | – | – | – | – | – | – | –

Source: patent US20200079833A1 (AstraZeneca / MedImmune, published 2020)
